From paper PMC9372883 (Antibody Therapeutics, 2022)

T1: P9-CCR7 (human, UniProt P32248 25-378)
T1 sequence: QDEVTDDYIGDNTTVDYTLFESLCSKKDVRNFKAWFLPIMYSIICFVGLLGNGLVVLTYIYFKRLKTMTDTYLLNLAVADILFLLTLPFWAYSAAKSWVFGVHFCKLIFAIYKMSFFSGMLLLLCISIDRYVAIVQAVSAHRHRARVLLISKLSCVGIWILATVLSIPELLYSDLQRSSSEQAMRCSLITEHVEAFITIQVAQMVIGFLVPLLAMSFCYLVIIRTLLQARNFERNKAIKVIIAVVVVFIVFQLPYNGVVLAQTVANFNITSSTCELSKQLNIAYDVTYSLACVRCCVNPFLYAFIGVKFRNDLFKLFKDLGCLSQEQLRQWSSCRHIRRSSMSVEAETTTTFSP


Target: T1, P9-CCR7
Assay: ELISA

| Binder | Kd [µM] |
| --- | --- |
| CCL21-H6-Flag (ligand) SDGGAQDCCLKYSQRKIPAKVVRSYRKQEPSLGCSIPAILFLPRKRSQAELCADPKELWVQQLMQHLDKTPSPQKPAQGCRKDRGASKTGKKGKGSKGCKRTERSQTPKGP | 0.011 |
| CCL19-H6-Flag (ligand) GTNDAEDCCLSVTQKPIPGYIVRNFHYLLIKDGCRVPAVVFTTLRGRQLCAPPDQPWVERIIQRLQRTSAKMKRRSS | 0.019 |
